{"source": "patent US20240200046", "system": "T1, MIT 11-12x.40 meganuclease (MIT 11-12) (artificial (I-CreI derived, Chlamydomonas reinhardtii))", "T1 sequence": "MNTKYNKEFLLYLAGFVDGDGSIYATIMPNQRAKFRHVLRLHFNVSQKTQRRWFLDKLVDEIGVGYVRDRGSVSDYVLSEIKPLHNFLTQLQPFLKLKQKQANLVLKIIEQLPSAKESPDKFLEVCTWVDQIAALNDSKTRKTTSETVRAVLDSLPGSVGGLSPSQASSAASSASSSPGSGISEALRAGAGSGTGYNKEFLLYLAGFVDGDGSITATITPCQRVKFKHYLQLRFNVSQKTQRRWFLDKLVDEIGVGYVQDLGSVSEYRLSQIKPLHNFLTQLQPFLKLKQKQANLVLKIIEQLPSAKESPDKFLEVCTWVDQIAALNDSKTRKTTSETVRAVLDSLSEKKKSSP", "assay": "cell_activity", "conditions": "CHO split-GFP recombination assay, 48 h"}
{"substance": "wild-type mtDNA tRNA-Ala target site", "values": [{"measurement": "activity", "result": "< 5", "unit": "% GFP+ cells"}]}
